Results on two molecules are retold here after PMC3793875, “Fluorescence correlation spectroscopy, combined with bimolecular fluorescence complementation, reveals the effects of β-arrestin complexes and endocytic targeting on the membrane mobility of neuropeptide Y receptors” (Biochimica et Biophysica Acta, 2012).

Numbering of substitutions follows the chain as printed.

The target in experiment [1] is T1, Y1 receptor-Gc (rat Y1 receptor fused at the C terminus to sfGFP fragment 155-238) (rat, UniProt P21555 1-382).
T1 construct: neuropeptide Y receptor type 1, rat; cDNA transferred to the pCMV FLAG vector for transfection; also called Y1-Gc; receptor of the Y1 A1, Y1 A2 and Y1 A2Δ cell lines; source: HEK293T, stably transfected into β-arrestin-Gn clonal lines; live or fixed cells, or membranes
T1 sequence (looked up): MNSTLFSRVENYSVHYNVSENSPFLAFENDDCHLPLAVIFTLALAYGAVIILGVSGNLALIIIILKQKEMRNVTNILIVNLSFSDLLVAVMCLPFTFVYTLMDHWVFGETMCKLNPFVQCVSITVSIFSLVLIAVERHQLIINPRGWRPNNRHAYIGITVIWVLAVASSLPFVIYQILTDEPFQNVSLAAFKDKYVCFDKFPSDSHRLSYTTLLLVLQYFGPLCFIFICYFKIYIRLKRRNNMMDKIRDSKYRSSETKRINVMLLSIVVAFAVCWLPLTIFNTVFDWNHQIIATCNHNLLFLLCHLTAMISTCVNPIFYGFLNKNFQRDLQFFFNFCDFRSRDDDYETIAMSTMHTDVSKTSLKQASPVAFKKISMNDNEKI
Description: split reporter (BiFC, NanoBiT); sfGFP BiFC in stable HEK293 cells in 96 well plates, NPY 0.1 nM-3 μM for 60 min at 37 °C, fixed, confocal platereader images quantified by granularity analysis (average granule intensity/cell). As to conditions: partners not purified.

The target of experiment [2] is T1, Y1 receptor-Gc (rat Y1 receptor fused …). Description: radioligand binding; as a1 but on membranes of the HEK293T BiFC cell line co-expressing β-arrestin2 ΔLIEFD-Gn (Y1 A2Δ); 16 pM [125I]PYY. As to conditions: one partner purified.
Experiment [3] has the same target. The experiment can be described thus: radioligand binding; as a1 but on membranes of HEK293T BiFC cell lines co-expressing β-arrestin1-Gn (Y1 A1, Y16A A1); 16 pM [125I]PYY. As to conditions: one partner purified.
The target in experiment [4] is T2, Y1 6A receptor-Gc (rat, UniProt P21555 1-382, S352A | T353A | T356A | S359A | T361A | S362A).
T2 construct: neuropeptide Y receptor type 1, rat, with six C tail serine/threonine residues changed to alanine; also called Y16A-Gc; receptor of the Y16A A1 and Y16A A2 cell lines; source: HEK293 cells stably co-expressing β-arrestin-Gn; live cells or membranes
T2 sequence (looked up): T1 sequence (looked up) with S352A, T353A, T356A, S359A, T361A, S362A
Described as above. As to conditions: one partner purified.

The target of experiment [5] is T3, Y1 receptor-sfGFP (rat NPY Y1 receptor, N-terminal FLAG, C-terminal superfolder GFP) (rat, UniProt P21555 1-382).
T3 construct: neuropeptide Y receptor type 1, rat; sfGFP here is enhanced GFP with S30R, Y39N, M153T and V163A (wild type GFP numbering), lacking the start Met; linker LRPLE between receptor C terminus and sfGFP; also called Y1sfGFP; Y1-sfGFP; source: membranes or live cells; not shown: sfGFP via linker LRPLE, C-terminal, kept
T3 sequence (looked up): T1 sequence (looked up)
The experiment can be described thus: radioligand binding; competition with [125I]PYY (16 pM for Y1, 10 pM for Y2 receptors) on membranes of tetracycline-induced 293TR Y receptor-sfGFP cell lines; 90 min at 21 °C; 25 mM HEPES, 2.5 mM CaCl2, 1.0 mM MgCl2, 0.1% BSA, 0.1 mg/ml bacitracin, pH 7.4; IC50 converted to pKi by the Cheng-Prusoff equation. As to conditions: one partner purified.

The target of experiment [6] is T4, Y1 6A receptor-sfGFP (rat, UniProt P21555 1-382, S352A | T353A | T356A | S359A | T361A | S362A).
T4 construct: neuropeptide Y receptor type 1, rat, with six C tail serine/threonine residues changed to alanine; also called Y16AsfGFP; source: membranes or live cells; not shown: sfGFP via linker LRPLE, C-terminal, kept
T4 sequence (looked up): T1 sequence (looked up) with S352A, T353A, T356A, S359A, T361A, S362A
The experiment is described as above. As to conditions: one partner purified.

For experiment [7], the target named is T1, Y1 receptor-Gc (rat Y1 receptor fused …). The experiment can be described thus: radioligand binding; as a1 but on membranes of HEK293T BiFC cell lines co-expressing β-arrestin2-Gn (Y1 A2, Y16A A2); 16 pM [125I]PYY. As to conditions: one partner purified.
In experiment [8] the target is T2, Y1 6A receptor-Gc. Described as above. As to conditions: one partner purified.

B1: β-arrestin1-Gn (human β-arrestin1 fused at the C terminus to sfGFP fragment 2-172) (natural protein, UniProt P49407 1-418, looked up)
chain: MGDKGTRVFKKASPNGKLTVYLGKRDFVDHIDLVDPVDGVVLVDPEYLKERRVYVTLTCAFRYGREDLDVLGLTFRKDLFVANVQSFPPAPEDKKPLTRLQERLIKKLGEHAYPFTFEIPPNLPCSVTLQPGPEDTGKACGVDYEVKAFCAENLEEKIHKRNSVRLVIRKVQYAPERPGPQPTAETTRQFLMSDKPLHLEASLDKEIYYHGEPISVNVHVTNNTNKTVKKIKISVRQYADICLFNTAQYKCPVAMEEADDTVAPSSTFCKVYTLTPFLANNREKRGLALDGKLKHEDTNLASSTLLREGANREILGIIVSYKVKVKLVVSRGGLLGDLASSDVAVELPFTLMHPKPKEEPPHREVPENETPVDTNLIELDTNDDDIVFEDFARQRLKGMKDDKEEEEDGTGSPQLNNR
notes: β-arrestin1, human, full length with the stop codon removed; The keyword list gives Gn as sfGFP 2-173, the methods as 2-172; also called A1; not shown: Gn (sfGFP fragment 2-172) via linker QRPLE, C-terminal, kept
B1: the “pEC50 of NPY in stimulating the BiFC response (β-arrestin recruitment)” value in experiment [1] came out at 8.3.

B2: peptide YY (PYY), unlabelled (peptide)
peptide: not shown
notes: neither species nor supplier is stated; surmised
The pKi is the negative decadic logarithm of the Ki, by convention in mol/L. For B2, the pKi was 9.44 in experiment [2]; 9.45 in experiment [3]; 9.3 in experiment [4]; 9.5 in experiment [5]; 9.22 in experiment [6]; 9.54 in experiment [7]. The negative logarithm of the Ki (pKi) in experiment [8] is 9.48.
